In experiment [1] the target is SUMO-StPTB1. Nature of the experiment: phage ELISA. The note with it: parent: est. 0.18; read off a plot. In general terms: An ELISA detects its analyte on a solid surface through an enzyme-linked reagent.
Experiment [2] deals with SUMO-StPTB6. Put plainly: phage ELISA. The note with it: parent: est. 0.19; read off a plot.

As to “phage-displayed StNova1 subdomain S2 G7del; G11del; G15del; G18del”, the response in experiment [1] and in experiment [2] was 0.079 λ490 in each case.

For the substance “phage-displayed StNova1 subdomain S2 G7del; G11del; P13del”, the response in experiment [1] is 0.044 λ490; in experiment [2], 0.043 λ490.

In the case of “phage-displayed StNova1 subdomain S2 G15del; G18del; P21del”, the response is 0.11 λ490 in experiment [1] and 0.13 λ490 in experiment [2].

Values taken from PMC3663837.
